According to IntAct's records for PubMed 21203436:

B1: Protein MKS1 (Arabidopsis thaliana (Mouse-ear cress)), Q8LGD5 (parent)
chain: MDPSEYFAGGNPSDQQNQKRQLQICGPRPSPLSVHKDSHKIKKPPKHPAPPPNRDQPPPYIPREPVVIYAVSPKVVHATASEFMNVVQRLTGISSGVFLESGGGGDVSPAARLASTENASPRGGKEPAARDETVEINTAMEEAAEFGGYAPGILSPSPALLPTASTGIFSPMYHQGGMFSPAIPLGLFSPAGFMSPFRSPGFTSLVASPTFADFFSHIWDQD
partner: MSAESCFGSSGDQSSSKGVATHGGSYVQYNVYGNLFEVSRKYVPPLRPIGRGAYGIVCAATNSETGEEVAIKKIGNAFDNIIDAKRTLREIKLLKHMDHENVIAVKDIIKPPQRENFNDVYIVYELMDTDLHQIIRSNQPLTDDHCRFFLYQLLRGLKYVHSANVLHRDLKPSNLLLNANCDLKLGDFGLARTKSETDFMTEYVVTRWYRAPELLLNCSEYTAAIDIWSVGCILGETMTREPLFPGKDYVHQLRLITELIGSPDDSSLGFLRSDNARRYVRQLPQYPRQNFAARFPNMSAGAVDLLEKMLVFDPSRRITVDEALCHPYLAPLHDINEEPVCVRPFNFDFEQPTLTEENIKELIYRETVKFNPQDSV

Variants of: B1
Conditions: with mpk4_arath MPK4, Q39024

| Variant | effect of a mutation on the interaction |
| --- | --- |
| MDPSEYFAGGNPSDQQNQKRQLQICGPRPSPASVHKDSHKIKKPPKHPAPPPNRDQPPPYIPREPVVIYAVSPKVVHATASEFMNVVQRLTGISSGVFLESGGGGDVSPAARLASTENASPRGGKEPAARDETVEINTAMEEAAEFGGYAPGILSPSPALLPTASTGIFSPMYHQGGMFSPAIPLGLFSPAGFMSPFRSPGFTSLVASPTFADFFSHIWDQD [L32A] | disrupting interaction |
| MDPSEYFAGGNPSDQQNQARQLQICGPRPSPLSVHKDSHKIKKPPKHPAPPPNRDQPPPYIPREPVVIYAVSPKVVHATASEFMNVVQRLTGISSGVFLESGGGGDVSPAARLASTENASPRGGKEPAARDETVEINTAMEEAAEFGGYAPGILSPSPALLPTASTGIFSPMYHQGGMFSPAIPLGLFSPAGFMSPFRSPGFTSLVASPTFADFFSHIWDQD [K19A] | disrupting interaction |
| MDPSEYFAGGNPSDQQNQKRQLQICGPAPSPLSVHKDSHKIKKPPKHPAPPPNRDQPPPYIPREPVVIYAVSPKVVHATASEFMNVVQRLTGISSGVFLESGGGGDVSPAARLASTENASPRGGKEPAARDETVEINTAMEEAAEFGGYAPGILSPSPALLPTASTGIFSPMYHQGGMFSPAIPLGLFSPAGFMSPFRSPGFTSLVASPTFADFFSHIWDQD [R28A] | disrupting interaction |
| MDPSEYFAGGNPSDQQNQKRQLQICGPRASPLSVHKDSHKIKKPPKHPAPPPNRDQPPPYIPREPVVIYAVSPKVVHATASEFMNVVQRLTGISSGVFLESGGGGDVSPAARLASTENASPRGGKEPAARDETVEINTAMEEAAEFGGYAPGILSPSPALLPTASTGIFSPMYHQGGMFSPAIPLGLFSPAGFMSPFRSPGFTSLVASPTFADFFSHIWDQD [P29A] | disrupting interaction |
| MDPSEYFAGGNPSDQQNQKRQLQICGPRPSPLSVHKDAHKIKKPPKHPAPPPNRDQPPPYIPREPVVIYAVSPKVVHATASEFMNVVQRLTGISSGVFLESGGGGDVSPAARLASTENASPRGGKEPAARDETVEINTAMEEAAEFGGYAPGILSPSPALLPTASTGIFSPMYHQGGMFSPAIPLGLFSPAGFMSPFRSPGFTSLVASPTFADFFSHIWDQD [S38A] | disrupting interaction |
| MDPSEYFAGGNPSDQQNQKRQLQICGPRPSPLSVHKDSHAIKKPPKHPAPPPNRDQPPPYIPREPVVIYAVSPKVVHATASEFMNVVQRLTGISSGVFLESGGGGDVSPAARLASTENASPRGGKEPAARDETVEINTAMEEAAEFGGYAPGILSPSPALLPTASTGIFSPMYHQGGMFSPAIPLGLFSPAGFMSPFRSPGFTSLVASPTFADFFSHIWDQD [K40A] | disrupting interaction |
